Data on 27 substances can be found in article PMC6226536.

Holding throughout (assay): Y2H (α-galactosidase activity)
The target of one assay is OVATE D280V. The note with it: read off a plot.
A further assay concerns the target SlTRM25 fragment. The note with it: parent: est. 4.2; read off a plot.
Another assay deals with SlTRM17/20a fragment. The note with it: read off a plot.
For the next assay, the target named is SlTRM5 fragment. The settings on record: read off a plot.
In another assay the target is OVATE. The note with it: read off a plot.
The next assay addresses SlOFP20. The note with it: read off a plot.
The target in the next assay is SlOFP20 D284V. The note with it: read off a plot.
Another assay has as its target SlOFP20^D265R. The note with it: read off a plot.
In the next assay the target is OVATE E299V. The note with it: read off a plot.
A further assay concerns the target SlOFP20 D265V. The settings on record: read off a plot.
A further assay deals with OVATE^D280R. The settings on record: read off a plot.

On to m5; m1 SlTRM25:K327V; OVATE:D280V, for which the response (milliunits/(ml×cell)) with OVATE D280V (parent: est. 4.2) came to 0.1. Consider OVATE D280V, for which the response (milliunits/(ml×cell)) with SlTRM25 fragment worked out at 0.1; with SlTRM17/20a fragment (parent: est. 7.2), 1.6; with SlTRM5 fragment (parent: est. 7.1), 0.1.

For SlOFP20 D265R, the values for the response (milliunits/(ml×cell)) with SlTRM25 fragment, in the assay with SlTRM17/20a fragment (parent: est. 7.9) and with SlTRM5 fragment (parent: est. 5.2) were 0.1, 5.3 and 0.1, respectively. On to SlTRM25 fragment K327V, for which the results for the response (milliunits/(ml×cell)) with OVATE (parent: est. 4.2) and in the assay with SlOFP20 (parent: est. 4.2) were 2.1 and 1.9, respectively.

With OVATE E299V, the response (milliunits/(ml×cell)) in the assay with SlTRM25 fragment was determined as 2.5; with SlTRM17/20a fragment (parent: est. 7.2) it was 5; in the assay with SlTRM5 fragment (parent: est. 7.1), 3.1. On to m3; m2 SlTRM5:R374V; SlOFP20:D284V, for which the response (milliunits/(ml×cell)) with SlOFP20 D284V (parent: est. 5.2) was 2.4. With m4; m2 SlTRM17/20a:K318V; SlOFP20:D265R, the response (milliunits/(ml×cell)) with SlOFP20^D265R (parent: est. 7.9) came out at 3.

Regarding m3; m2 SlTRM5:R374V; SlOFP20:D265R, the response (milliunits/(ml×cell)) with SlOFP20^D265R (parent: est. 5.2) came to 0.1. Take m5; m2 SlTRM25:K327V; SlOFP20:D265R: the response (milliunits/(ml×cell)) with SlOFP20^D265R (parent: est. 4.2) was determined as 0.1.

For the substance m4; m1 SlTRM17/20a:K318V; OVATE:E299V, in the assay with OVATE E299V (parent: est. 7.2), the response (milliunits/(ml×cell)) is 4.1.

m4; m2 SlTRM17/20a:K318V; SlOFP20:D284V: in the assay with SlOFP20 D284V (parent: est. 7.9), the response (milliunits/(ml×cell)) was determined as 4.8.

With OVATE D280R, the response (milliunits/(ml×cell)) with SlTRM25 fragment, in the assay with SlTRM17/20a fragment (parent: est. 7.2) and in the assay with SlTRM5 fragment (parent: est. 7.1) was 0.1 throughout. As for SlOFP20 D284V, the response (milliunits/(ml×cell)) stood at 0.25 with SlTRM25 fragment, 7.2 in the assay with SlTRM17/20a fragment (parent: est. 7.9) and 2.5 with SlTRM5 fragment (parent: est. 5.2).

With m5; m1 SlTRM25:K327V; OVATE:E299V, the response (milliunits/(ml×cell)) with OVATE E299V (parent: est. 4.2) came to 2.3. In the case of m3; m1 SlTRM5:R374V; OVATE:D280V, the response (milliunits/(ml×cell)) in the assay with OVATE D280V (parent: est. 7.1) was found to be 0.1. For the substance m4; m1 SlTRM17/20a:K318V; OVATE:D280V, the response (milliunits/(ml×cell)) with OVATE D280V (parent: est. 7.2) is 0.9.

Consider SlTRM17/20a fragment K318V, for which the values for the response (milliunits/(ml×cell)) with OVATE (parent: est. 7.2) and in the assay with SlOFP20 (parent: est. 7.9) were 4.2 and 4.5, respectively.

m4; m2 SlTRM17/20a:K318V; SlOFP20:D265V: the response (milliunits/(ml×cell)) with SlOFP20 D265V (parent: est. 7.9) is 3.6. On to m3; m1 SlTRM5:R374V; OVATE:E299V, for which, in the assay with OVATE E299V (parent: est. 7.1), the response (milliunits/(ml×cell)) was found to be 3.1. Regarding m4; m1 SlTRM17/20a:K318V; OVATE:D280R, the response (milliunits/(ml×cell)) with OVATE^D280R (parent: est. 7.2) is 0.25. Turning to m3; m2 SlTRM5:R374V; SlOFP20:D265V, in the assay with SlOFP20 D265V (parent: est. 5.2), the response (milliunits/(ml×cell)) is 0.1. In the case of m3; m1 SlTRM5:R374V; OVATE:D280R, the response (milliunits/(ml×cell)) with OVATE^D280R (parent: est. 7.1) is 0.1. For the substance SlOFP20 D265V, the response (milliunits/(ml×cell)) turned out to be 0.1 with SlTRM25 fragment, 6 with SlTRM17/20a fragment (parent: est. 7.9) and 0.1 in the assay with SlTRM5 fragment (parent: est. 5.2).

As to m5; m2 SlTRM25:K327V; SlOFP20:D265V, the response (milliunits/(ml×cell)) with SlOFP20 D265V (parent: est. 4.2) worked out at 0.1. In the case of SlTRM5 fragment R374V, the values for the response (milliunits/(ml×cell)) with OVATE (parent: est. 7.1) and in the assay with SlOFP20 (parent: est. 5.2) were 4.7 and 3.4, respectively. For m5; m2 SlTRM25:K327V; SlOFP20:D284V, in the assay with SlOFP20 D284V (parent: est. 4.2), the response (milliunits/(ml×cell)) is 0.25. As to m5; m1 SlTRM25:K327V; OVATE:D280R, in the assay with OVATE^D280R (parent: est. 4.2), the response (milliunits/(ml×cell)) was determined as 0.1.
